# Data from patent US8440190.
# Biological target: immobilized CD52 (human) (UniProt P31358)
# Test: Fab fragments assayed for binding to immobilized CD52
row,fold reduction of binding against the humanized Campath-1 Fab,Substance
1,3 fold,humanized Campath-1 Fab with (VH) CDR1 replaced by that of NEW
2,8 fold,humanized Campath-1 Fab with (VH) CDR3 replaced by that of NEW
3,3 fold,humanized Campath-1 Fab with (VL) CDR3 replaced by that of REI
